Laboratory results reported in US20230121197A1, “ANTIBODIES SPECIFICALLY BINDING THE CARBOXYMETHYLATED CATALYTIC SUBUNIT OF PROTEIN PHOSPHATASE 2A” (Medizinische Universität Wien, priority 2020, published 2023).

Target: α-carboxymethylated PP2Ac (Homo sapiens, UniProt P67775)
Assay: IHC tissue microarray analysis of localized and metastatic prostate cancer tissue, Allred scoring
Parameters: IHC tissue microarray analyses of prostate cancer tissue with the 7C10-C5 antibody; from tissue; host or cells: localized and metastatic prostate cancer tissue (tissue microarray, FFPE)
Procedure: Immunohistochemical staining was performed on the DAKO Autostainer (DAKO, Carpinteria, Calif.) using Envision+ or liquid streptavidin-biotin and diaminobenzadine (DAB) as the chromogen. De-paraffinized sections were labeled with mouse monoclonal antibody 7C10-C5 (1:200) overnight at 4 C. Microwave 10 mM Tris HCl, pH9 containing 1 mM EDTA epitope retrieval was used prior to staining. Appropriate negative (no primary antibody) and positive controls (pancreas) were stained in parallel with each set of slides studied. Peptide competition studies were performed using 2 peptides ([…]*) (SEQ ID NO:115) differing in the methylation status at position L (marked with a *); FIG. 13E: Peptides were incubated at ambient temperature for 60 mins at 10-1000× molar ratios before being applied to the slide. FIG. 13F: Before being stained, slides were incubated in freshly made 200 mM NaOH for 10 mins at 4° C. and then neutralized by several washes in TBST.
Stained slides were scanned using an APERIO AT2 (Leica) and the digital images imported into QuPath (Bankhead et al., 2017). TMA cores were analyzed for percentage of cells staining and intensity. In FIGS. 13E and F, higher visibility of the dark cell nuclei indicates weaker α-carboxymethylated PP2Ac staining.
The assembly of trimeric tumor-suppressive PP2A holoenzymes is promoted/facilitated by PP2Ac α-carboxymethylation. The PP2Ac α-carboxymethylation levels correlate positively with the levels of methylation-sensitive trimeric PP2A holoenzymes. A truly specific anti-methyl-PP2Ac antibody (7C10-C5) can be used to determine the α-carboxymethylated PP2Ac levels in normal and disease tissue by IHC analyses of tissue microarrays of cancer, normal tissues and tissues obtained from other disease states including but not limited to heart disease, Alzheimers disease, and diabetes. The PP2A methylation status in disease tissue can be graded using the Allred scoring system that scores the proportion of cells that stain by IHC as well as the intensity of the IHC staining. […] Allied scoring is calculated the following way: […]

[1] = IHC, mean±standard deviation, 12 samples

Sequence of α-carboxymethylated PP2Ac (P67775 whole entry): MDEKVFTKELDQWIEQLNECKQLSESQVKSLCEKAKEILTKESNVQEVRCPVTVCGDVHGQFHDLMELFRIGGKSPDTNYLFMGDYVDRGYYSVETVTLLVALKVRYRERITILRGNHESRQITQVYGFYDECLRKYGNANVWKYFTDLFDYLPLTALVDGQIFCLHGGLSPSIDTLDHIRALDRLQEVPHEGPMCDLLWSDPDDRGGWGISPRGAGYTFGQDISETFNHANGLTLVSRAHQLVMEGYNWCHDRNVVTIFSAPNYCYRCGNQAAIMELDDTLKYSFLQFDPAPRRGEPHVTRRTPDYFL

B1: 7C10-C5: α-carboxymethylation specific mouse monoclonal IgG1 antibody from single clone hybridoma 7C10-C5 (DSM ACC3350) (antibody)
heavy: MYRMQLLSCIALSLALVTNSDVQLQESGPGLVKPSQSLSLTCSVTGYSITSGYYWNWIRQFPGNKLEWMGYISYDGSNNYNPSLKNRISITRDTSKNQFFLKLNSVTTEDTATYYCAGRFAYWGQGTLVTVSAAKTTAPSVYPLAPVCGDTTGSSVTLGCLVKGYFPEPVTLTWNSGSLSSGVHTFPAVLQSDLYTLSSSVTVTSSTWPSQSITCNVAHPASSTKVDKKIEPRGPTIKPCPPCKCPAPNLLGGPSVFIFPPKIKDVLMISLSPIVTCVVVDVSEDDPDVQISWFVNNVEVHTAQTQTHREDYNSTLRVVSALPIQHQDWMSGKEFKCKVNNKDLPAPIERTISKPKGSVRAPQVYVLPPPEEEMTKKQVTLTCMVTDFMPEDIYVEWTNNGKTELNYKNTEPVLDSDGSYFMYSKLRVEKKNWVERNSYSCSVVHEGLHNHHTTKSFSRTPGK
light: MDMRVPAQLLGLLLLWLSGARCDVLMTQTPLSLPVSLGDQASISCRSSQSIVHSNGNTYLEWYLQKPGQSPKLLIYKVSNRFSGVPDRFSGSGSGTDFTLKINRVEAEDLGVYYCFQGSHVPWTFGGGTKLEIKADAAPTVSIFPPSSEQLTSGGASVVCFLNNFYPKDINVKWKIDGSERQNGVLNSWTDQDSKDSTYSMSSTLTLTKDEYERHNSYTCEATHKTSTSPIVKSFNRNEC
modifications: Amino acid sequence of the recombinant 7C10-C5 heavy chain; Amino acid sequence of the recombinant 7C10-C5 light chain
In the case of B1, the “average Allred score, localized prostate cancer tissues” value [1] is reported as 2.2±2.3, the “average Allred score, metastatic prostate cancer tissues” value [1] is reported as 0.4±1.4 and the “discrimination between localized and metastatic prostate cancer by IHC staining” value (tissue microarray, Allred score) is reported as “significantly lower levels”.
